Laboratory results: a protein production outcome set (Wang et al. 2014)

Test: label from the status in PepcDB records

| Sequence | protein production |
| --- | --- |
| MKGSVKKDKKTGKYFYIVDIDIDPLTGKRKQKKKRGFTSKKEAENALTNLLSEVHTGTYVEPSKLSYGEYLESWFNTKRHSVGIQTAKVLKGYLNSRIIPSLGNIKLAKLTSLHMQNYVNSLRDEGLKRGTIEKIIKVIRNSLEHAIDLELITKNVAAKTKLPKADKEELTVWNEQEVQLFLKAAQDGRYSIVFHMALVTGMRQGELLGLRWKDVDLEKGHLIISQTLSHDGKTFLVGGKTKSSLRKILLPASTIAKLKKHRAVILKEKLSQGEEYQDNDLVMCTPSGTPINPANVRRSLNALIQKAAVPKIRFHDLRHTHATLLLAKGVNVKVISERLGHSNIKITLDTYSHVLPTMQEDAVNKMEEIL | failed |
| MTDLIYNDPDFVQFYDIENQDGRADFDYCVRLARDGGSVLDLGCGTGQLAAEMAQGCNVTGVDPASAMLDVARRRTGGDKVDWVVADARTVRLGRRFDLVLLTGHVFQVFLTDEDQRAVLRTIAEHLGPGGRFIFDTRNPAVEAWLEWTPQRSERMVEHPSLGTVRAWYDADWDAASAVVTYSTFYEIPGGRPILGAESKIAFPKKQDLAGMLDDAGLLVEQWLGDWQGEPYADTSPEIIPIGRLR | failed |
| MSLVNLTINGKHVSAPSGTSILDAAKLINIKIHNLCHLHMNEIDKLDTCASCRVCMVETERGLVPACGTVIKEGMKVQTNSAKALNARRTIVELLLSDHPQDCFVCEKNGDCELQTIAADLGVRKIRYQGSKSFAGKDTSTKSLVKDHSKCILCRRCETVCNDIQTVGALSGVNRGFNTLVSTFFNSDMVETECTFCGQCISVCPTGALTEVDNVPKLWDVLNKKEKTIVVQVAPAVRVAIGEEFGLEPGSISTGKMVAALKALGFEHVFDTNFGADFTIMEEATEFIERIQKGENLPILTSCCPAWVNFLEHNYPDKLNLASSCKSPQGMFGSIAKNYYAPKILGINPEELYVVSVMPCVAKKYEASREELSESGILDVDLSITTRELAKMIKEAAIDLPNLQDQDFDNPLGKSTGAASIFGASGGVLEAALRTSYEKITNKTLDNVNFTNVRGLKGIREASIDVDGTTVNVCIVNTLKNARKIMDKVRSGECKYHIIEVMACPGGCVGGAGQPYHHGNTEIVDRRANALYEIDRNKAIRKSHENPDLQAIYKDFFGEPNSDVAHKYLHTHYFDKSCVYGECPQECACEEAK | failed |
| MDKNEIGLNAGKVWQLLSNNDKWSYGNLKKKSGLKDKDLGAALGWLAREDKIEFEQEEEELYVYLCVNVYIGLEHHHHHH | failed |
| QVSKTYYVSKPGTLISMMTEEEANSITHLTLTGKLNAEDFRHLRDEFPSLKVLDISNAEIKMYSGKAGTYPNGKFYIYMANFVPAYAFSNVVNGVTKGKQTLEKVILSEKIKNIEDAAFKGCDNLKICQIRKKTAPNLLPEALADSVTAIFIPLGSSDAYRFKNRWEHFAFIEGEPLETTIQVGAMGKLEDEIMKAGLQPRDINFLTIEGKLDNADFKLIRDYMPNLVSLDISKTNATTIPDFTFAQKKYLLKIKLPHNLKTIGQRVFSNCGRLAGTLELPASVTAIEFGAFMGCDNLRYVLATGDKITTLGDELFGNGVPSKLIYKK | not failed |
| MGNLKLALIIKSPRDDVEFLLEKQKQPAKFGDEAYDSFVDSDLWDLPSTDLQALEDGVRSGFSISILDSCSEEVDLMNFDFESTLILLLENLGIDISDVGEWRFVRSVEEPEFGPDSCVRTCFISGKLLNTDQSLQDNCKWMSMESCFDSLIDVKLGSDRVGPLVLLGLGDGSRQSMKHKLSSSLAIQEYPPGVMIVPMHSKTLKPFRTTNLVVFAPENGLGDHQGADFVAHGDALIVDPGCLSKLHVELKKIVDALPRKLIVFVTHHHRDHIDGLSAIQESNPDAILVAHAKTRHRIGGWSGNYTPVSGGENIYVNGQKLTVIFAPGHTDGHMSLLHTSTQSLIVGDHCVGQGSAFLDIRAGGNMTDYFQSTYKFLELSPNVVIPMHGRVNLWPKHMLCGYLKNRRSREKSILKATVDGAQTLYDIVAKVYSSVDRKFWWAASSNVRLHIEKLAVENKLPEGFSIQKFKASCGLRFAIRCTVGYIISKIPFKINKPGFIMSVMAAGAGYFLLYTSKKKNQIES | failed |
| MFRWERSIPLRGSAAALCNNLSVLQLPARNLTYFGVVHGPSAQLLSAAPEGVPLAQRQLHAKEGAGVSPPLITQVHWCVLPFRVLLVLTSHRGIQMYESNGYTMVYWHALDSGDASPVQAVFARGIAASGHFICVGTWSGRVLVFDIPAKGPNIVLSEELAGHQMPITDIATEPAQGQDCVADMVTADDSGLLCVWRSGPEFTLLTRIPGFGVPCPSVQLWQGIIAAGYGNGQVHLYEATTGNLHVQINAHARAICALDLASEVGKLLSAGEDTFVHIWKLSRNPESGYIEVEHCHGECVADTQLCGARFCDSSGNSFAVTGYDLAEIRRFSSV | failed |
| PEVGSSEHKLKIRNIKLSDYDDIFEIMESVYADIGGPWTKKELRSHLNHFPEGQICIEDNGKVIAAAFSLIVNYSNYGDKHTYQQITGDGLLTNHDPEGDTLYGIDIFVHPEFRGLRLGRRLYDARKELCEKLNLRAIIVGGRIPGYKNFAKKLTPRQYIEEVKKKEIFDPVLTFQLANDFHLRKIIQGYLPDDRDSKAYAALLEWKNALYEIEE | failed |
| MLKHLDRSKKGKVARSFLQAISKDEAVAPPLRVVQIEGLAVLKIIKHCKEFSPTLVTGQLLGLDVGSVLEVTNCFPFPVRDDDEEIEADGANYQLEMMRCLREVNVDNNTVGWYQSTVLGSYQTVELIETFMNYQENIKRCVCIIYDPSKADLGVLALKALKLSDSFMELYRGGNFTGEKLREKNFSWMDIFEEIPIKVSNSALVSAFMTELETDTPVSQGDYDRLHSSTTPFLENNMEFLIKCMDDLSMEQQKFQYYYRNLSRQQAQQQAWLQKRRTENMARKSAGEEPLPEEDPSNPIFKAIPEPSRLESFLITNQVSNFCGQINGVAGQNFSRLYLTKALHDN | failed |
| MLDSINRVLDRPDFGKLFLRVSFSVLMLFHGWHKLHGGIGFIEGMLTNAGLPAFVGYGVYVGEIIIPIMMILGIFTRPAALIFSFTMFVASLLVHSGDFLSLEKTGAWAVEGAAVFFFAGIAIALLGSGKYSVMSNPRWR | failed |
| MTPMPSSVKPVEGRSVLIEWQDGHSSLYENVYLREHCQCAECVHEWTGEKLISRERIPADIRPVSVSAVGNYALSIRFSDGHGTGVYSYELLRKICPCPLCKA | failed |
| QGHLVHMTVVSGSNVTLNISESLPENYKQLTWFYTFDQKIVEWDSRKSKYFESKFKGRVRLDPQSGALYISKVQKEDNSTYIMRVLKKTGNEQEWKIKLQVLDPVPKPVIKIEK | not failed |
| MAIKAGKVLRTATAAARKFQQKQFSASSSAFPEPPPVSPSSGVGAFLGIPKIIRSESDLLVSKYIRIAQGRLTKKGDYTEEKLKKMLSGEDRVGIGETMKLLEGRNTGLVSSKKPNSGRSKK | failed |
| MLGLVLLYVGIVLISNGICGLTKVDPKSTAVMNFFVGGLSIICNIVVITYSALHPTAPVEGAEDIAQVSHHLTSFYGPATGLLFGFTYLYAAINHTFGLDWRPYSWYSLFVAINTIPAAILSHYSDMLDDHKVLGITEGDWWAIIWLAWGVLWLTAFIENILKIPLGKFTPWLAIIEGILTAWIPAWLLFIQHWV | failed |
| MSMIRLTVEETNLLSIYNEGGKRALIENVNAALPYMDADMRELAKRTLSKVDALTEAEFAELPIYAADEV | failed |
| MSSVSEVNVDIKDFLMSINLEQYLLHFHESGFTTVKDCAAINDSLLQKIGISPTGHRRRILKQLQIILSKMQDIPIYA | not failed |
| MSLDSDVIVDRRRMRRKLTFWRVAAVLVAIVAVVAIGAMVSPAGRGALTSTGSIARIKIEGLIRSNDERVQALDRLGKSSYSAVIVHINSPGGTTAGSEELHDALARLKAKKPMVVVVEGLAASGGYIAALASEHIVAQQTSLVGSIGVLFQYPNVSELLKTVGVKVEEVKSSPLKAAPNGFEPTSPEARAAIEALVKDSYAWFRGMVQQSRKMTDDQLNVVADGRVFTGRQAVGLKLIDELGDERTAIAWLEKAKNVKAGLPVRDYKLAPQFGDLTFLRAAASVAFDAAGLGVIARRVEQTGAMQSVERLGLDGMLALWAPSAGQ | failed |
| MRGRMTRSQLILAILAGLVISIDNMISIVAFSSLIYQGALEIYIPLVINILAISVIIISASYLFMSSPPYAIAQLQDEAAILYSAMGLVIIKSMPSSSTNEAIFITILFMLGVTTCLTGLSFYFVGKFRFGNIIRYLPYPVICGFMAATGWLVLSGTFALLTGKALHQNWLVFFHKEEILLWAPGFIAGIVVYIFKEKLGYRYALQLMFISLVILFYALFYIFNLEYLVDPTEGYVLGPFNQSHIDSLMKPEIWQMIHYPFSMTLLNYIGLVILVSFIALLLNASSYELIVNKQLDLNKELRIAGIGNVFSGLLGGMVGYLSLSASTVAKEYGGARIIGVMAFVPMLLILCFGAVVVECFPKMAIGCYLFYIAFCFLSEWLINTWRLLNLSEYLIVLLILVIAIVFNMITAVAIGTVISIFIFAFRYSKINPVKYLFSGADYNSSFERNPISQSILSTQGDEIQFLKLQGFLFFGSIYRLLQLIKSIQKARYIILDFELVYNIDSSRIILMKNLKLHAEKNNISFAICSLKPIVYHELMKTNLLQSKTNWLKVFTDQESALEWCEDQVIEKYTENINIEEVTLEKQLLYLGFSSELVAWISEKASIKPYNPDDIICHEGEESNSVYFIHRGRVTAFVGDKRVLVVGSGNVLGEIAIYTHKKRTATLKTNEKTIVYEIDLKSIQELSKNKPLLLVQFHVCMAKILANRLSVLNKRIKVFDSTAILQ | failed |
| MSGPSTYQPQSPLMKWLEQRLPIAGLVHSSFIAYPTPRNLNYWWTFGAILSMMLAVQIVTGIVLAMHYTPHVDLAFDSVERIVRDVNYGWLLRNMHAAGASMFFIAVYVHMLRGLYYGSYKAPREVLWILGVIIYLLMMATGFMGYVLPWGQMSFWGATVITNLFSAFPIVGDSIVTLLWGGYSVGNPTLNRFFSLHYLLPFVIAGVVVLHVWALHVTGQNNPAGVEPKTEKDTVPFTPYATLKDVFGMSCFLVFYSWFIFYMPNYLGDAENYVPANPGVTPPHIVPEWYYLPFYAILRSIPNKLMGVIAMFGAIIVLLFLPWLDSCKVRSSRYRPMAKRFFWAFVVTCLVLGWLGSKPAEGIYTTLGQVFTFFYFAYFLIVLPVLGRMEKTLPLPNSIAEDVLNKGKVAKAVAGLVAVLFAGGLMVGGVQPAKANEGGENPPSLQWSFAGPFGTYDRAQLQRGFKIYKEVCSNCHSLKLLQYRNLAEPGGPGFTVEQAKEIAAAAQIKDGPNDQGEMFERPGRLADTFHSPFPNEQAARAANGGAAPPDMSLLAKARTYPRGFPQFIFDFFTQFQEQGPNYIAALLQGYEDTPPEGFSLPDGSFYNKWYPGHSIKMPPPIQAGMVSYDDGTPETLEQYAKDISTFLVWASEPHMEARKRLGLQVMIFLVILSSLLYFVKRKVWSNVH | failed |
| MSSKDKKLSKPTSGRTGGIRTLSDLNRRSEPDSDSDSDGPQEYFTGGEKSGMLVQDPTKEPKHDDVDEIFNQARQLGAVEGPLEHPSSSRSFTGTGRLLSGESVPTALQQPEPVIHNIIFWSNGFTVDDGPLRKLDDPENASFLDSIRKSECPKELEPVDKRAPVHVNLMRRDEKCPEKEKLKVSFQGVGRTLGGASSSTASSQSNLTDVAAVQSPLQSLVVDETLPSTSIQLRLADGTRMVAKFNNHHTVNDIRGFIEFSRPGNPNNYTLQVMGFPPKPLTDPSQTIEQAGLASSVVIQKF | not failed |
